Measured values as given in patent US20150361165A1 (SYDDANSK UNIVERSITET, published 2015).

What was measured:
[1] = target: T1, mouse MFAP4 in tissue (mouse aorta) (mouse, UniProt Q9D1H9 23-257); experiment: immunohistochemistry on mouse aorta; no signal in mfap4-/- tissue
T1 construct: Native protein detected by immunohistochemistry; signal absent in mfap4-/- tissue; also called mouse MFAP4 homologue
T1 sequence (looked up): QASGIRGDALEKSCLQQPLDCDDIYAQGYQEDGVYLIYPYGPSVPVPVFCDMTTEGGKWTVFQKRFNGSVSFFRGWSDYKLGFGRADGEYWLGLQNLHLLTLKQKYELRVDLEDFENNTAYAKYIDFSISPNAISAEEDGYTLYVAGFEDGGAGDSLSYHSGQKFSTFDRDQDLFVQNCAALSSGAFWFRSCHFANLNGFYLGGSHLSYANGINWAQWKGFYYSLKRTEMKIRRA

[2] = target: T2, human MFAP4 in tissue (human mammary artery) (human, UniProt P55083 22-255); experiment: immunohistochemistry on human mammary artery
T2 construct: Native protein detected by immunohistochemistry
T2 sequence (looked up): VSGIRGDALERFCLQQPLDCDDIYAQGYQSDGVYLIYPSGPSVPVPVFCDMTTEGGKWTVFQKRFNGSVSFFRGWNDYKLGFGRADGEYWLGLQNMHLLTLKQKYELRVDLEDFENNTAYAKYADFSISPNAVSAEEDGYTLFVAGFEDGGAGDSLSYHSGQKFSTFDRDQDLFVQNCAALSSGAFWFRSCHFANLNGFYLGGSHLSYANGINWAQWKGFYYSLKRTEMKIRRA

binding result [1]: binds | binding result [2]: binds
B1: HG-HYB 7-14 (antibody, V domains shown)
VH: EVKVVESGGGLVQPGGSLRLSCATSGFTFSDFYMEWVRQPPGKRLEWIAASRNKANDYTTEYSASVKGRFIVSRDTSQSILYLQLNALRAEDTAIYYCARNYYDSSYWYFDVWGAGTTVTVSS
VL: DIVLTQSPSYLAASPGETITINCRASKSISKYLAWYQERPGKTNKLLIYSGSTLQSGIPSRFSGSGSGTDFTLTISSLEPEDFAMYYCQQHNEYPFTFGAGTKLELK
notes: Monoclonal antibody raised in MFAP4-deficient C57BL/6N mice against rMFAP4; also called FITC-anti-MFAP4 (HG-HYB 7-14)
